# Data as given in the supplement of paper PMC10126150.
# ± gives the standard deviation of the averaged measurements.
# System: ATP
# Test: switch fluorescence ratio, 500 uM ATP over buffer (Cy3 cluster intensity, sum of 5 cycles each) (fold (ratio)); higher = stronger signal-on switching upon ATP binding; sequences stand for … in TCGTCGGCAGCGTCAGATGTGTATAAGAGACAGTTTTTTTTTTTTTTTTTTTTTTTTT…TC
# Conditions: aptamer strand: ATP DNA aptamer (quencher-CACCTGGGGGAGTATTGCGGAGGAAGG + anchor), 100 nM annealed; ATP concentration: 500 uM
# Method in brief: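 Cy3-labelled switching-strand clusters on a modified Illumina MiSeq flow-cell were annealed to 100 nM quencher-labelled ATP aptamer, imaged in selection buffer, then imaged after 15 min with 500 uM ATP at 22 °C. Five buffer/ATP cycles ran, with NaOH stripping and re-annealing between them. The fluorescence ratio is summed target-cycle over summed buffer-cycle Cy3 intensity per cluster, averaged per switch-domain sequence. Clusters outside 100-1000 RFU were excluded.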
# 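Further: ATP exposure 15 min at 22 °C before imaging.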
sequence,measurement,value
CAGTCTGGTG,switch fluorescence ratio,1.01 ± 0.025
GGGGTAATTC,switch fluorescence ratio,1.06 ± 0.039
AGTATTGGGC,switch fluorescence ratio,1.008 ± 0.01
TGGCTCATAC,switch fluorescence ratio,1.45 ± 0.041
GCTGGAGGGT,switch fluorescence ratio,0.997 ± 0.019
AGAGAATATT,switch fluorescence ratio,1.03 ± 0.039
TTCCGGATTA,switch fluorescence ratio,1.07 ± 0.065
GTCGAGGGGA,switch fluorescence ratio,1.01 ± 0.035
TTTTTGTTTG,switch fluorescence ratio,0.985 ± 0.029
GGCAAATGGG,switch fluorescence ratio,1.02 ± 0.012
TATCGCCGAA,switch fluorescence ratio,0.997 ± 0.037
TTTTACGCCT,switch fluorescence ratio,1.02 ± 0.012
GTTGTCGTAT,switch fluorescence ratio,0.974 ± 0.051
ACGGCTGTCA,switch fluorescence ratio,0.999 ± 0.025
GAAACTATTT,switch fluorescence ratio,1.03 ± 0.05
TCAAATAGGC,switch fluorescence ratio,1.016 ± 0.01
AAAGGTCGAT,switch fluorescence ratio,0.986 ± 0.022
TCCAAATTTT,switch fluorescence ratio,1.02 ± 0.016
AACTATGGTA,switch fluorescence ratio,0.992 ± 0.033
AATTGTTGGT,switch fluorescence ratio,1.01 ± 0.036
GGTTGAGCGG,switch fluorescence ratio,0.993 ± 0.011
GAGTAAGCAA,switch fluorescence ratio,1.64 ± 0.084
ACCGCATTGT,switch fluorescence ratio,1.96 ± 0.23
GCTTAAGGCT,switch fluorescence ratio,1 ± 0.022
AGGAGGAGGA,switch fluorescence ratio,1.07 ± 0.065
CGCTCGTATT,switch fluorescence ratio,1.019 ± 0.009
CATACTTTGG,switch fluorescence ratio,1.01 ± 0.016
TTTGTAGGAT,switch fluorescence ratio,1.04 ± 0.014
TACGTAATCT,switch fluorescence ratio,1.27 ± 0.014
GCCGTTACTG,switch fluorescence ratio,1.05 ± 0.031
GGGTCGGCTA,switch fluorescence ratio,1.02 ± 0.035
TTAAGGCCAC,switch fluorescence ratio,1.034 ± 0.0055
TAAATACTCT,switch fluorescence ratio,1.16 ± 0.032
CGTTATTGAG,switch fluorescence ratio,0.95 ± 0.016
TTAAGTTAGC,switch fluorescence ratio,1.06 ± 0.045
TATTCACTTG,switch fluorescence ratio,1.04 ± 0.025
GAATATAGTT,switch fluorescence ratio,0.9947 ± 0.0078
GCCTGAAGGG,switch fluorescence ratio,1 ± 0.014
GGGGCATTAT,switch fluorescence ratio,1.06 ± 0.074
GCATTATGTT,switch fluorescence ratio,0.987 ± 0.044
TCGAATATCA,switch fluorescence ratio,1.007 ± 0.0097
AAAAATAAGC,switch fluorescence ratio,1.03 ± 0.072
CATAACGTTA,switch fluorescence ratio,1.032 ± 0.0071
CTTTTCTTCA,switch fluorescence ratio,1.01 ± 0.046
TATATAGGGA,switch fluorescence ratio,0.981 ± 0.026
AATACGGGGT,switch fluorescence ratio,1.03 ± 0.033
TAATGGTTGG,switch fluorescence ratio,0.99283 ± 0.00085
GTCTCTGGGG,switch fluorescence ratio,1.08 ± 0.083
TGTGCCCCTT,switch fluorescence ratio,0.991 ± 0.042
AAACATAGTG,switch fluorescence ratio,0.987 ± 0.052
TTGTATAAGA,switch fluorescence ratio,1.003 ± 0.0088
ACTACCCTCG,switch fluorescence ratio,1.18 ± 0.065
TTTAGTCGGG,switch fluorescence ratio,1.02 ± 0.046
AGGTTTGCTC,switch fluorescence ratio,1.01 ± 0.011
GTTTATAGGT,switch fluorescence ratio,0.9815 ± 0.0077
TGATTACTGG,switch fluorescence ratio,1.027 ± 0.01
TTTCCGGTGC,switch fluorescence ratio,1.7 ± 0.13
CGAAAAGTTT,switch fluorescence ratio,0.994 ± 0.023
AATTTGGTAT,switch fluorescence ratio,1.04 ± 0.011
GGGCAAATGA,switch fluorescence ratio,0.9764 ± 0.0041
TTACTATGTT,switch fluorescence ratio,0.999 ± 0.018
GATTAAAAAG,switch fluorescence ratio,0.99 ± 0.062
AGTCGGGATG,switch fluorescence ratio,0.963 ± 0.035
TTGGTGGAAT,switch fluorescence ratio,1.06 ± 0.093
AACAGAGTTT,switch fluorescence ratio,1.02 ± 0.026
TTTGGAATCG,switch fluorescence ratio,1.01 ± 0.046
TTTTTCTTAT,switch fluorescence ratio,1 ± 0.041
GTGAGTAATT,switch fluorescence ratio,1.02 ± 0.078
GGGTCAGAGA,switch fluorescence ratio,0.987 ± 0.019
CGGGGAGCCA,switch fluorescence ratio,1.001 ± 0.01
AGGGTTATTT,switch fluorescence ratio,0.998 ± 0.03
GTTAAATGGT,switch fluorescence ratio,1 ± 0.031
ACTTAGTCCA,switch fluorescence ratio,1.03 ± 0.034
AGTTCAGAAC,switch fluorescence ratio,0.9899 ± 0.0075
AGAAAGGAGT,switch fluorescence ratio,0.9982 ± 0.0032
TAGGGTCGT,switch fluorescence ratio,0.9932 ± 0.0024
GCTTTATGCT,switch fluorescence ratio,0.9714 ± 0.0025
TGATTTTTCT,switch fluorescence ratio,1 ± 0.013
TCAAGGGGAA,switch fluorescence ratio,1 ± 0.019
TTTGGATATT,switch fluorescence ratio,1.03 ± 0.095
CATCAGGCAC,switch fluorescence ratio,1.2 ± 0.023
TTAAAGGTGG,switch fluorescence ratio,0.984 ± 0.042
TACGTTGCTT,switch fluorescence ratio,0.9959 ± 0.0022
ATGGTGTGCG,switch fluorescence ratio,1.01 ± 0.025
TGTAATGGTT,switch fluorescence ratio,1.004 ± 0.01
CTATAAAGTT,switch fluorescence ratio,0.979 ± 0.024
TTTTCGGGTG,switch fluorescence ratio,1.05 ± 0.024
AAGAAAAAGG,switch fluorescence ratio,0.993 ± 0.036
CAGGTTGGGG,switch fluorescence ratio,1.03 ± 0.054
ATTTAGTCAG,switch fluorescence ratio,0.9737 ± 0.0053
CTGTTTGGTA,switch fluorescence ratio,1 ± 0.055
TTTCATTAAA,switch fluorescence ratio,0.994 ± 0.033
GCGTTTTAAC,switch fluorescence ratio,1.019 ± 0.0093
GACGGGGGAA,switch fluorescence ratio,1.82 ± 1.3
TTTGGGACAG,switch fluorescence ratio,0.981 ± 0.031
GGATATAGGG,switch fluorescence ratio,1 ± 0.034
TCGTTTTGGG,switch fluorescence ratio,0.9988 ± 0.0056
TTAACGTGTG,switch fluorescence ratio,0.975 ± 0.029
TTACTGGTTA,switch fluorescence ratio,1.01 ± 0.029
AATACAGAGA,switch fluorescence ratio,1.01 ± 0.055
TGGTGTCAGT,switch fluorescence ratio,0.977 ± 0.022
GACGATTGCG,switch fluorescence ratio,1.01 ± 0.032
TTCCTGCGCT,switch fluorescence ratio,1.77 ± 1
TACAGAATGG,switch fluorescence ratio,0.991 ± 0.014
CTTGAATTTT,switch fluorescence ratio,0.988 ± 0.049
ACAAGTATCA,switch fluorescence ratio,0.9853 ± 0.0074
ATATTTTGTT,switch fluorescence ratio,1.03 ± 0.066
GGTCAATGTG,switch fluorescence ratio,0.987 ± 0.033
CGTTGTATAG,switch fluorescence ratio,0.971 ± 0.016
GATCGCTCGG,switch fluorescence ratio,1.01 ± 0.02
AGAAGCTATT,switch fluorescence ratio,0.9724 ± 0.0017
CCTGCTGTTC,switch fluorescence ratio,1.51 ± 0.09
GGGACCGTAT,switch fluorescence ratio,1 ± 0.023
TTTAAGGCCT,switch fluorescence ratio,1 ± 0.021
TGTTTTGTGG,switch fluorescence ratio,1.02 ± 0.018
CATATCTAGG,switch fluorescence ratio,0.997 ± 0.025
GCTGTGGGTA,switch fluorescence ratio,0.989 ± 0.01
AATGTCGAAA,switch fluorescence ratio,0.998 ± 0.018
GTGTACGTGG,switch fluorescence ratio,1.008 ± 0.0057
AATAAGGGTG,switch fluorescence ratio,1.09 ± 0.14
GAGGAGGGGG,switch fluorescence ratio,0.986 ± 0.032
CGCTTTGGGT,switch fluorescence ratio,0.99 ± 0.018
AATTCGTCG,switch fluorescence ratio,0.9557 ± 0.0045
TTAGAAGGCA,switch fluorescence ratio,1.03 ± 0.036
GGTATTAAGG,switch fluorescence ratio,1.02 ± 0.013
GGGGACAGGG,switch fluorescence ratio,1.01 ± 0.051
GAGATGATTT,switch fluorescence ratio,1.02 ± 0.063
GATAGTCTTG,switch fluorescence ratio,0.985 ± 0.023
GGTATTTGTA,switch fluorescence ratio,0.991 ± 0.031
CGGTATGATC,switch fluorescence ratio,1.02 ± 0.022
TGGATGTCAG,switch fluorescence ratio,0.992 ± 0.054
GACTACAGTG,switch fluorescence ratio,1.1 ± 0.019
CGATGTAGGT,switch fluorescence ratio,1.02 ± 0.025
TTCTGGGCGG,switch fluorescence ratio,1.02 ± 0.032
ATGGGGCCAA,switch fluorescence ratio,1.03 ± 0.031
GGGGTGGGGG,switch fluorescence ratio,1.01 ± 0.039
AGGGAACCCT,switch fluorescence ratio,1.13 ± 0.03
TTGTATTGGA,switch fluorescence ratio,0.995 ± 0.015
ATAGTCAAGG,switch fluorescence ratio,0.982 ± 0.028
TATAAGTTAT,switch fluorescence ratio,0.993 ± 0.029
TTTTGAAACG,switch fluorescence ratio,0.995 ± 0.025
CCTGGAGAGT,switch fluorescence ratio,1.02 ± 0.059
GGGTCCCGGG,switch fluorescence ratio,1.0586 ± 0.00036
GCCATGGTTG,switch fluorescence ratio,1.04 ± 0.067
CGGTGAGGAC,switch fluorescence ratio,0.98264 ± 0.00074
TTCAGAGGGG,switch fluorescence ratio,0.997 ± 0.033
GCTAAACGAT,switch fluorescence ratio,1.03 ± 0.055
CTTATAATAG,switch fluorescence ratio,1.036 ± 0.006
AGTGGTTTTT,switch fluorescence ratio,0.9946 ± 0.0055
TCTTCTAA,switch fluorescence ratio,0.9972 ± 0.0047
GGGGTTCGTT,switch fluorescence ratio,1.01 ± 0.072
TACTGTTTTT,switch fluorescence ratio,0.9832 ± 0.0056
GTGCGGGGCG,switch fluorescence ratio,1.02 ± 0.067
